# From US20260242478A1 (published 2026)
# Experiments:
# [1] = biological target: Anti-CD28 Fab (SEQ ID NOs: 696, 697); assay: phage ELISA; biotinylated anti-CD28 Fab on neutravidin plate, clonal phage supernatant, anti-M13 HRP detection;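 note: crude supernatants of single phage clones picked after panning were screened for binding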
# Target sequence in this assay (VH, as listed by the source, chain 1 of 2): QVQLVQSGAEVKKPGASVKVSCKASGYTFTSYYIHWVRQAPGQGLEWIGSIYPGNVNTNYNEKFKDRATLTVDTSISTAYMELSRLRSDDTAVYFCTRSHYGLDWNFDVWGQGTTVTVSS
# Target sequence in this assay (VL, as listed by the source, chain 2 of 2): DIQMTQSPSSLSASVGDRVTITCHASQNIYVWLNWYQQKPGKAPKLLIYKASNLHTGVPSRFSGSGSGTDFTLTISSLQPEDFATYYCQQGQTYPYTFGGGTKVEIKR
# [2] = biological target: Anti-CD28 Fab (SEQ ID NOs: 696, 697); assay: phage ELISA; Fab-coated wells pre-incubated with CD28 antigen as competitor, anti-M13 HRP detection;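 note: crude clonal phage supernatants screened by ELISA, comparing wells pre-treated with CD28 antigen in blocker against wells given blocker only, bound phage read via HRP-linked anti-M13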
# Target sequence in this assay (VH, as listed by the source, chain 1 of 2): as the sequence (VH, as listed by the source, chain 1 of 2) above
# Target sequence in this assay (VL, as listed by the source, chain 2 of 2): as the sequence (VL, as listed by the source, chain 2 of 2) above
# Experimental: (§1) After panning, phage infected bacteria were plated out and colonies picked into 96 well blocks. Clonal phage was then amplified and separated from bacterial cells via centrifugation.
# (§2) Clonal phage were harvested as crude supematants and screened via standard ELISAs. […] Prior to the addition of clonal phage, wells were incubated with blocking buffer and CD28 antigen or blocking buffer alone. Without washing or aspirating, clonal phage supematants were then added to the wells and incubated for a short time. Wells were then washed followed by detection of bound phage using a horse radish conjugated anti-M13 antibody. Clonal phage of interest were then sent for sequence analysis.
# [3] = biological target: T1, Anti-CD28 Fab (SEQ ID NOs: 696, 697); assay: phage ELISA; biotinylated anti-CD28 Fab on neutravidin plate, clonal phage supernatant, anti-M13 HRP detection;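 note: crude supernatants of single phage clones picked after panning were screened for binding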
# T1 construct: In the phage ELISA the Fab was biotinylated and captured on neutravidin coated plates
# T1 sequence (VH, as listed by the source, chain 1 of 2): as the sequence (VH, as listed by the source, chain 1 of 2) above
# T1 sequence (VL, as listed by the source, chain 2 of 2): as the sequence (VL, as listed by the source, chain 2 of 2) above
# [4] = biological target: T1, Anti-CD28 Fab (SEQ ID NOs: 696, 697); assay: phage ELISA; captured anti-CD28 Fab pre-incubated with CD28 antigen as competitor, anti-M13 HRP detection;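 note: crude clonal phage supernatants screened by ELISA, with wells pre-incubated with CD28 antigen in blocking buffer, compared against wells given blocking buffer alone as control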
# Experimental: as §1, §2
# [5] = biological target: T2, Anti-CD28 Fab (SEQ ID NOs: 696, 697); assay: phage ELISA; biotinylated anti-CD28 Fab on neutravidin plate, clonal phage supernatant, anti-M13 HRP detection; remark: listed apart in the source;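 note: crude supernatants of single phage clones picked after panning were screened for binding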
# T2 construct: In the phage ELISA the Fab was biotinylated and captured on neutravidin coated plates
# T2 sequence (VH, as listed by the source, chain 1 of 2): as the sequence (VH, as listed by the source, chain 1 of 2) above
# T2 sequence (VL, as listed by the source, chain 2 of 2): as the sequence (VL, as listed by the source, chain 2 of 2) above
# [6] = biological target: T2, Anti-CD28 Fab (SEQ ID NOs: 696, 697); assay: phage ELISA as above with wells pre-incubated with CD28 antigen as competitor
# Experimental: as §1, §2
# [7] = biological target: T3, Anti-CD28 Fab (SEQ ID NOs: 696, 697); assay: phage ELISA, clonal phage on biotinylated anti-CD28 Fab captured on neutravidin plates;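 note: crude clonal phage supernatants added to wells pretreated with CD28 antigen or with blocking buffer only, bound phage detected by HRP-linked anti-M13 antibody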
# T3 construct: In the phage ELISA the Fab was biotinylated and captured on neutravidin coated plates
# T3 sequence (VH, as listed by the source, chain 1 of 2): as the sequence (VH, as listed by the source, chain 1 of 2) above
# T3 sequence (VL, as listed by the source, chain 2 of 2): as the sequence (VL, as listed by the source, chain 2 of 2) above
# Experimental: as §1, §2
# [8] = biological target: T3, Anti-CD28 Fab (SEQ ID NOs: 696, 697); assay: phage ELISA on captured anti-CD28 Fab, wells pre-incubated with CD28 antigen as competitor;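 note: crude clonal phage supernatants added without washing, bound phage read out by HRP-coupled anti-M13 antibody, reference wells given blocking buffer only instead of CD28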
binder,measurement,setting,value
YCDGHAPLYIQKCL (Tested as clonal phage supernatant) [Phage-1095],Anti-CD28 Fab signal (phage binding ELISA),[1],1.34
same,Anti-CD28 Fab signal in the presence of CD28 (phage binding ELISA),[2],0.06
YCEGHHPWYVQKCL (Clonal phage supernatant; not shown: fused to the pIII filament protein of the bacteriophage) [Phage-1071],Anti-CD28 Fab signal (phage binding ELISA),[3],1.39
same,Anti-CD28 Fab signal in the presence of CD28 (phage binding ELISA),[4],0.07
YCNGHLPEYMSKCI (Clonal phage supernatant; not shown: fused to the pIII filament protein of the bacteriophage) [Phage-1068],Anti-CD28 Fab signal (phage binding ELISA),[3],1.4
same,Anti-CD28 Fab signal in the presence of CD28 (phage binding ELISA),[4],0.07
YCDGHLPRYMAKCL (Tested as clonal phage supernatant) [Phage-1092],Anti-CD28 Fab signal (phage binding ELISA),[1],1.35
same,Anti-CD28 Fab signal in the presence of CD28 (phage binding ELISA),[2],0.1
YCEGHSMEYIQKCL (Tested as clonal phage supernatant) [Phage-1045],Anti-CD28 Fab signal (phage binding ELISA),[5],1.44
same,Anti-CD28 Fab signal in the presence of CD28 (phage binding ELISA),[6],0.07
YCEGHSQEYMAKCL (Tested as clonal phage supernatant) [Phage-1046],Anti-CD28 Fab signal (phage binding ELISA),[5],1.44
same,Anti-CD28 Fab signal in the presence of CD28 (phage binding ELISA),[6],0.06
YCDGHLAIYMWKCL (Tested as clonal phage supernatant) [Phage-1037],Anti-CD28 Fab signal (phage binding ELISA),[5],1.45
same,Anti-CD28 Fab signal in the presence of CD28 (phage binding ELISA),[6],0.09
YCVGHLPQYMQKCL [Phage-1049],Anti-CD28 Fab signal (phage binding ELISA),[7],1.43
same,Anti-CD28 Fab signal in the presence of CD28 (phage binding ELISA),[8],0.06
YCEGHAVEYMAKCL (Tested as clonal phage supernatant) [Phage-1043],Anti-CD28 Fab signal (phage binding ELISA),[5],1.44
same,Anti-CD28 Fab signal in the presence of CD28 (phage binding ELISA),[6],0.07
YCAGHSAEYMSKCL (Clonal phage supernatant; not shown: fused to the pIII filament protein of the bacteriophage) [Phage-1062],Anti-CD28 Fab signal (phage binding ELISA),[3],1.41
same,Anti-CD28 Fab signal in the presence of CD28 (phage binding ELISA),[4],0.07
YCDGHTPEYMWKCL [Phage-1054],Anti-CD28 Fab signal (phage binding ELISA),[7],1.43
same,Anti-CD28 Fab signal in the presence of CD28 (phage binding ELISA),[8],0.06
YCDGHNFQYMEKCL (Tested as clonal phage supernatant) [Phage-1048],Anti-CD28 Fab signal (phage binding ELISA),[5],1.44
same,Anti-CD28 Fab signal in the presence of CD28 (phage binding ELISA),[6],0.06
YCEGHLPIYMEKCL (Tested as clonal phage supernatant) [Phage-1044],Anti-CD28 Fab signal (phage binding ELISA),[5],1.44
same,Anti-CD28 Fab signal in the presence of CD28 (phage binding ELISA),[6],0.07
YCDGHAEQYMSKCL (Clonal phage supernatant; not shown: fused to the pIII filament protein of the bacteriophage) [Phage-1073],Anti-CD28 Fab signal (phage binding ELISA),[3],1.38
same,Anti-CD28 Fab signal in the presence of CD28 (phage binding ELISA),[4],0.07
YCDGHSEEFMWKCL (Tested as clonal phage supernatant) [Phage-1090],Anti-CD28 Fab signal (phage binding ELISA),[1],1.35
same,Anti-CD28 Fab signal in the presence of CD28 (phage binding ELISA),[2],0.06
YCLGHSWPYIHKCY [Phage-1052],Anti-CD28 Fab signal (phage binding ELISA),[7],1.43
same,Anti-CD28 Fab signal in the presence of CD28 (phage binding ELISA),[8],0.07
YCDGHSLQYMSKCL (Tested as clonal phage supernatant) [Phage-1039],Anti-CD28 Fab signal (phage binding ELISA),[5],1.45
same,Anti-CD28 Fab signal in the presence of CD28 (phage binding ELISA),[6],0.06
YCDGLFQLYMMKCL (Clonal phage supernatant; not shown: fused to the pIII filament protein of the bacteriophage) [Phage-1074],Anti-CD28 Fab signal (phage binding ELISA),[3],1.38
same,Anti-CD28 Fab signal in the presence of CD28 (phage binding ELISA),[4],0.07
YCDGHLDEYMLKCL [Phage-1053],Anti-CD28 Fab signal (phage binding ELISA),[7],1.43
same,Anti-CD28 Fab signal in the presence of CD28 (phage binding ELISA),[8],0.06
YCEGHMEKYMEKCL (Tested as clonal phage supernatant) [Phage-1091],Anti-CD28 Fab signal (phage binding ELISA),[1],1.35
same,Anti-CD28 Fab signal in the presence of CD28 (phage binding ELISA),[2],0.11
YCDGHSLEYIDKCM [Phage-1057],Anti-CD28 Fab signal (phage binding ELISA),[7],1.42
same,Anti-CD28 Fab signal in the presence of CD28 (phage binding ELISA),[8],0.09
YCDGHDARYMEKCL (Clonal phage supernatant; not shown: fused to the pIII filament protein of the bacteriophage) [Phage-1066],Anti-CD28 Fab signal (phage binding ELISA),[3],1.4
same,Anti-CD28 Fab signal in the presence of CD28 (phage binding ELISA),[4],0.06
YCDGHSPAFIQKCL [Phage-1056],Anti-CD28 Fab signal (phage binding ELISA),[7],1.42
same,Anti-CD28 Fab signal in the presence of CD28 (phage binding ELISA),[8],0.08
YCDGHAEEYMAKCL (Tested as clonal phage supernatant) [Phage-1038],Anti-CD28 Fab signal (phage binding ELISA),[5],1.45
same,Anti-CD28 Fab signal in the presence of CD28 (phage binding ELISA),[6],0.06
YCAGHAEEYLEKCL [Phage-1060],Anti-CD28 Fab signal (phage binding ELISA),[7],1.41
same,Anti-CD28 Fab signal in the presence of CD28 (phage binding ELISA),[8],0.15
YCDGHLLQYMHKCL (Tested as clonal phage supernatant) [Phage-1094],Anti-CD28 Fab signal (phage binding ELISA),[1],1.35
same,Anti-CD28 Fab signal in the presence of CD28 (phage binding ELISA),[2],0.07
YCDGHSPEHMGKCL (Clonal phage supernatant; not shown: fused to the pIII filament protein of the bacteriophage) [Phage-1065],Anti-CD28 Fab signal (phage binding ELISA),[3],1.4
same,Anti-CD28 Fab signal in the presence of CD28 (phage binding ELISA),[4],0.09
YCDGHSPEYMQKCL (Clonal phage supernatant; not shown: fused to the pIII filament protein of the bacteriophage) [Phage-1067],Anti-CD28 Fab signal (phage binding ELISA),[3],1.4
same,Anti-CD28 Fab signal in the presence of CD28 (phage binding ELISA),[4],0.53
YCSGHLPEYMDKCL (Clonal phage supernatant; not shown: fused to the pIII filament protein of the bacteriophage) [Phage-1069],Anti-CD28 Fab signal (phage binding ELISA),[3],1.39
same,Anti-CD28 Fab signal in the presence of CD28 (phage binding ELISA),[4],0.07
YCDGHAPEYLGKCL [Phage-1059],Anti-CD28 Fab signal (phage binding ELISA),[7],1.41
same,Anti-CD28 Fab signal in the presence of CD28 (phage binding ELISA),[8],0.06
YCDGHLPEYIAKCQ [Phage-1050],Anti-CD28 Fab signal (phage binding ELISA),[7],1.43
same,Anti-CD28 Fab signal in the presence of CD28 (phage binding ELISA),[8],0.07
YCDGHSHEYMQKCL [Phage-1061],Anti-CD28 Fab signal (phage binding ELISA),[7],1.41
same,Anti-CD28 Fab signal in the presence of CD28 (phage binding ELISA),[8],0.06
YCQGHIEPYLAKCL (Tested as clonal phage supernatant) [Phage-1036],Anti-CD28 Fab signal (phage binding ELISA),[5],1.46
same,Anti-CD28 Fab signal in the presence of CD28 (phage binding ELISA),[6],0.05
YCDGHLPEYMNQCL (Tested as clonal phage supernatant) [Phage-1047],Anti-CD28 Fab signal (phage binding ELISA),[5],1.44
same,Anti-CD28 Fab signal in the presence of CD28 (phage binding ELISA),[6],0.07
YCQGHSPNYITKCF [Phage-1058],Anti-CD28 Fab signal (phage binding ELISA),[7],1.41
same,Anti-CD28 Fab signal in the presence of CD28 (phage binding ELISA),[8],0.06
YCEGHSAEYIAKCL (Clonal phage supernatant; not shown: fused to the pIII filament protein of the bacteriophage) [Phage-1064],Anti-CD28 Fab signal (phage binding ELISA),[3],1.41
same,Anti-CD28 Fab signal in the presence of CD28 (phage binding ELISA),[4],0.09
YCDGHLMEYKAKCL (Clonal phage supernatant; not shown: fused to the pIII filament protein of the bacteriophage) [Phage-1063],Anti-CD28 Fab signal (phage binding ELISA),[3],1.41
same,Anti-CD28 Fab signal in the presence of CD28 (phage binding ELISA),[4],0.06
YCAGHLPQYIQKCL (Tested as clonal phage supernatant) [Phage-1041],Anti-CD28 Fab signal (phage binding ELISA),[5],1.44
same,Anti-CD28 Fab signal in the presence of CD28 (phage binding ELISA),[6],0.07
YCDGHNWEYMEKCL (Clonal phage supernatant; not shown: fused to the pIII filament protein of the bacteriophage) [Phage-1072],Anti-CD28 Fab signal (phage binding ELISA),[3],1.38
same,Anti-CD28 Fab signal in the presence of CD28 (phage binding ELISA),[4],0.05
YCDGHMVQYMAKCL (Tested as clonal phage supernatant) [Phage-1089],Anti-CD28 Fab signal (phage binding ELISA),[1],1.36
same,Anti-CD28 Fab signal in the presence of CD28 (phage binding ELISA),[2],0.07
YCEGHLPQYMTKCI (Tested as clonal phage supernatant) [Phage-1040],Anti-CD28 Fab signal (phage binding ELISA),[5],1.44
same,Anti-CD28 Fab signal in the presence of CD28 (phage binding ELISA),[6],0.08
YCDGHSLEYMLKCL (Clonal phage supernatant; not shown: fused to the pIII filament protein of the bacteriophage) [Phage-1070],Anti-CD28 Fab signal (phage binding ELISA),[3],1.39
same,Anti-CD28 Fab signal in the presence of CD28 (phage binding ELISA),[4],0.07
YCEGHSQQYMQKCL [Phage-1055],Anti-CD28 Fab signal (phage binding ELISA),[7],1.42
same,Anti-CD28 Fab signal in the presence of CD28 (phage binding ELISA),[8],0.08
YCEGHLAIYQKKCL (Tested as clonal phage supernatant) [Phage-1042],Anti-CD28 Fab signal (phage binding ELISA),[5],1.44
same,Anti-CD28 Fab signal in the presence of CD28 (phage binding ELISA),[6],0.06
YCDGHSLEYIEKCL [Phage-1051],Anti-CD28 Fab signal (phage binding ELISA),[7],1.43
same,Anti-CD28 Fab signal in the presence of CD28 (phage binding ELISA),[8],0.06
YCDGHLPEYMQKCL (Tested as clonal phage supernatant) [Phage-1093],Anti-CD28 Fab signal (phage binding ELISA),[1],1.35
same,Anti-CD28 Fab signal in the presence of CD28 (phage binding ELISA),[2],0.08
